Laboratory results published in patent US11325966.

Legend:
Test in all cases: cell-based or functional assay
92BR020 N136A (HIV-1) = target: 92BR020 N136A (HIV-1)
92BR020 N332A (HIV-1) = target: 92BR020 N332A (HIV-1)
92BR020 D325A (HIV-1) = target: 92BR020 D325A (HIV-1)
JR-CSF I326A (HIV-1) = JR-CSF I326A (HIV-1) (UniProt P20871)
JR-CSF N362A (HIV-1) = JR-CSF N362A (HIV-1) (UniProt P20871)
JR-CSF N392A (HIV-1) = JR-CSF N392A (HIV-1) (UniProt P20871)
JR-CSF N386A (HIV-1) = JR-CSF N386A (HIV-1) (UniProt P20871)
[1] = target: BG505 (T332N) N156A (HIV-1)
JR-CSF N332A (HIV-1) = JR-CSF N332A (HIV-1) (UniProt P20871)
92BR020 N156A (HIV-1) = target: 92BR020 N156A (HIV-1)
92BR020 Q328A (HIV-1) = target: 92BR020 Q328A (HIV-1)
[2] = target: 92BR020 N156A + N332A (HIV-1)
JR-CSF H33OA (HIV-1) = JR-CSF H33OA (HIV-1) (UniProt P20871)
[3] = target: BG505 (T332N) N392A (HIV-1)
92BR020 N392A (HIV-1) = target: 92BR020 N392A (HIV-1)
92BR020 (HIV-1) = target: 92BR020 (HIV-1)
92BR020 I326A (HIV-1) = target: 92BR020 I326A (HIV-1)
92BR020 R327A (HIV-1) = target: 92BR020 R327A (HIV-1)
[4] = target: 92BR020 N136A + N332A (HIV-1)
JR-CSF N301A (HIV-1) = JR-CSF N301A (HIV-1) (UniProt P20871)
[5] = target: BG505 (T332N) N386A (HIV-1)
BG505 (T332N) (HIV-1) = target: BG505 (T332N) (HIV-1)
JR-CSF N339A (HIV-1) = JR-CSF N339A (HIV-1) (UniProt P20871)
JR-CSF R327A (HIV-1) = JR-CSF R327A (HIV-1) (UniProt P20871)
[6] = target: BG505 (T332N) N295A (HIV-1)
[7] = target: 92BR020 N136A + N156A + N301A (HIV-1)
[8] = target: 92BR020 N301A + N332A (HIV-1)
92BR020 H33OA (HIV-1) = target: 92BR020 H33OA (HIV-1)
JR-CSF Q328A (HIV-1) = JR-CSF Q328A (HIV-1) (UniProt P20871)
JR-CSF N295A (HIV-1) = JR-CSF N295A (HIV-1) (UniProt P20871)
JR-CSF D325A (HIV-1) = JR-CSF D325A (HIV-1) (UniProt P20871)
JR-CSF (HIV-1) = JR-CSF (HIV-1) (UniProt P20871)
[9] = target: BG505 (T332N) N301A (HIV-1)
92BR020 N301A (HIV-1) = target: 92BR020 N301A (HIV-1)
JR-CSF G324A (HIV-1) = JR-CSF G324A (HIV-1) (UniProt P20871)
92BR020 N386A (HIV-1) = target: 92BR020 N386A (HIV-1)
[10] = target: BG505 (T332N) N137A (HIV-1)
[11] = target: 118-virus panel (Env of HIV-1 pseudoviruses)

Q: For control mAb 12A12 (antibody), which IC50 in TZM-bl assay (92BR020 N136A (HIV-1)) is on record?
A: 0.027 mg/L

Q: And the IC50 in TZM-bl assay (92BR020 N332A (HIV-1))?
A: 0.039 mg/L

Q: And the IC50 in TZM-bl assay (92BR020 D325A (HIV-1))?
A: 0.05 mg/L

Q: What about the IC50 in TZM-bl assay (JR-CSF I326A (HIV-1)) of the same molecule?
A: 0.278 mg/L

Q: What about the IC50 in TZM-bl assay (JR-CSF N362A (HIV-1)) of the same molecule?
A: 0.267 mg/L

Q: And the IC50 in TZM-bl assay (JR-CSF N392A (HIV-1))?
A: 0.23 mg/L

Q: And the IC50 in TZM-bl assay (JR-CSF N386A (HIV-1))?
A: 0.332 mg/L

Q: And the IC50 in TZM-bl assay [1]?
A: 0.024 mg/L

Q: And the IC50 in TZM-bl assay (JR-CSF N332A (HIV-1))?
A: 0.24 mg/L

Q: And the IC50 in TZM-bl assay (92BR020 N156A (HIV-1))?
A: 0.035 mg/L

Q: And the IC50 in TZM-bl assay (92BR020 Q328A (HIV-1))?
A: 0.028 mg/L

Q: And the IC50 in TZM-bl assay [2]?
A: 0.023 mg/L

Q: And the IC50 in TZM-bl assay (JR-CSF H33OA (HIV-1))?
A: 0.288 mg/L

Q: And the IC50 in TZM-bl assay [3]?
A: 0.012 mg/L

Q: And the IC50 in TZM-bl assay (92BR020 N392A (HIV-1))?
A: 0.105 mg/L

Q: What about the IC50 in TZM-bl assay (92BR020 (HIV-1)) of the same molecule?
A: 0.05 mg/L

Q: What about the IC50 in TZM-bl assay (92BR020 I326A (HIV-1)) of the same molecule?
A: 0.011 mg/L

Q: What about the IC50 in TZM-bl assay (92BR020 R327A (HIV-1)) of the same molecule?
A: 0.022 mg/L

Q: What about the IC50 in TZM-bl assay [4] of the same molecule?
A: 0.025 mg/L

Q: And the IC50 in TZM-bl assay (JR-CSF N301A (HIV-1))?
A: 0.01 mg/L

Q: And the IC50 in TZM-bl assay [5]?
A: 0.03 mg/L

Q: What about the IC50 in TZM-bl assay (BG505 (T332N) (HIV-1)) of the same molecule?
A: 0.03 mg/L

Q: And the IC50 in TZM-bl assay (JR-CSF N339A (HIV-1))?
A: 0.028 mg/L

Q: And the IC50 in TZM-bl assay (JR-CSF R327A (HIV-1))?
A: 0.131 mg/L

Q: What about the IC50 in TZM-bl assay [6] of the same molecule?
A: 0.044 mg/L

Q: And the IC50 in TZM-bl assay [7]?
A: 0.013 mg/L

Q: And the IC50 in TZM-bl assay [8]?
A: 0.007 mg/L

Q: What about the IC50 in TZM-bl assay (92BR020 H33OA (HIV-1)) of the same molecule?
A: 0.073 mg/L

Q: What about the IC50 in TZM-bl assay (JR-CSF Q328A (HIV-1)) of the same molecule?
A: 0.038 mg/L

Q: What about the IC50 in TZM-bl assay (JR-CSF N295A (HIV-1)) of the same molecule?
A: 0.203 mg/L

Q: What about the IC50 in TZM-bl assay (JR-CSF D325A (HIV-1)) of the same molecule?
A: 0.203 mg/L

Q: And the IC50 in TZM-bl assay (JR-CSF (HIV-1))?
A: 0.233 mg/L

Q: And the IC50 in TZM-bl assay [9]?
A: 0.027 mg/L

Q: And the IC50 in TZM-bl assay (92BR020 N301A (HIV-1))?
A: 0.011 mg/L

Q: And the IC50 in TZM-bl assay (JR-CSF G324A (HIV-1))?
A: 0.236 mg/L

Q: What about the IC50 in TZM-bl assay (92BR020 N386A (HIV-1)) of the same molecule?
A: 0.055 mg/L

Q: And the IC50 in TZM-bl assay [10]?
A: 0.027 mg/L

Q: For 354BG18 (antibody), which IC50 in TZM-bl assay (92BR020 N332A (HIV-1)) is on record?
A: > 50 mg/L

Q: And the IC50 in TZM-bl assay (JR-CSF N392A (HIV-1))?
A: 0.002 mg/L

Q: What about the IC50 in TZM-bl assay (JR-CSF N332A (HIV-1)) of the same molecule?
A: > 50 mg/L

Q: And the IC50 in TZM-bl assay [2]?
A: > 50 mg/L

Q: What about the IC50 in TZM-bl assay [4] of the same molecule?
A: > 50 mg/L

Q: And the IC50 in TZM-bl assay [8]?
A: > 50 mg/L

Q: What about the IC50 in TZM-bl assay (92BR020 N386A (HIV-1)) of the same molecule?
A: 0.003 mg/L

B1: BG1 IgG (antibody, V domains shown)
VH: AEQLVESGGGLVPPGRSLRLSCSASGFYFPDYAMAWVRQAPGQGLQWVGFMRGWAYGGSAQFAAFAVGKFAISRDDGRNVVYLDVKNPTFEDTGVYFCAREQRNKDYRYGQEGFGYSYGMDVWGRGTTVVVST
VL: DIHMTQSPVSLSASVGDRVTITCRASHFIANYVNWYQQKPGKAPTLLIFESSTLQRGVPSRFSAYGDGTEFTLSINTLQPEDFASYICQQSHSPPVTFGAGTRVDQK
Q: For B1, which geometric mean IC50 in TZM-bl assay [11] is on record?
A: 0.67 mg/L
